Residue numbers refer to the chain shown, from its start.
B1: antibody 2-12 (antibody, V domains shown)
VH: QLVQSGGGVRRPGASVKISCETPEDTFTKYWLHWLRQAPGQGLEWMGVVSPHGGRPMFAFEFRDRLTLTRDIHTTTHFMELRGLTSDDTAVYYCARDPFGETFRGHDQPYRMDVWGGGTTIVVSS
VL: EPVLTQSPGTLSVSPGEGATLSCRARQGFSADHVAWFQKKPGRPPRLLIFEASRRASGTPERFSGSGSGPEYTLTITRVEAEDFAVYYCQSYGSITPLVFGGGTRVDVK
B2: antibody 1-18 (antibody, V domains shown)
VH: QGRLFQSGAEVKRPGASVRISCRADDDPYTDDDTFTKYWTHWIRQAPGQRPEWLGVISPHFARPIYSYKFRDRLTLTRDSSLTAVYLELKGLQPDDSGIYFCARDPFGDRAPHYNYHMDVWGGGTAVIVSS
VL: EVVLTQSPAILSVSPGDRVILSCRASQGLDSSHLAWYRFKRGQIPTLVIFGTSNRARGTPDRFSGSGSGADFTLTISRVEPEDFATYYCQRYGGTPITFGGGTTLDKK
B3: antibody 1-55 (antibody, V domains shown)
VH: QRRLFQSGTEVKRPGASVKISCRADDDPYTDDDTFTKYYTHWIRQAPGQPPEWLGVISPHFARPIYSYKFRDRLTLTRDSSLTAVYFELRGLQPDDTGIYFCARDPFGDMYPHYNYHMDVWGGGTTVIVSA
VL: B2 VL with V2A, R24K, Q27E, D30S, H33D, R41G, T52A, A70T, S77N

Molecular target: HIV-1 Env protein of virus strain 89-F1_2_25 (HIV-1)
Assay: cell-based or functional assay

Binder | IC50, TZM-bl pseudovirus neutralization assay
B1 | 6 ng/mL
B2 | 7 ng/mL
B3 | 14 ng/mL

Source: patent publication US20240376183A1 (UNIVERSIT T ZU K LN, published 2024)
